Experiments:
fast axonal transport = assay: Vesicle motility assay in isolated squid axoplasm, perfusion of recombinant protein alone; assay type: cell-based, squid Loligo pealeii
Protocol: Recombinant Polypeptides. Wild-type androgen receptor and polyQ-AR polypeptides were produced by in vitro transcription/translation (TNT T7-Coupled Reticulocyte Lysate System; Promega, Madison, Wis.) according to manufacturer's protocols. Typically, 1.8 μg of plasmid was transcribed in 50 μl reaction mix. To assess protein levels, parallel reactions were performed incorporating ^35S-labeled methionine (Amersham) or quantitative immunoblots were performed. Protein concentrations were typically 0.2-0.5 nM. In vitro translated androgen receptor has been characterized and shown to be functional (Kuiper, et al. (1993) Biochem. J. 296(Pt 1):161-7). In vitro translation products were briefly centrifuged to eliminate translation machinery, and supernatants frozen in liquid N2 until used.
Genes encoding human wild-type Huntingtin (Htt) (i.e., Q20, residues 1-548; Szebenyi, et al. (2003) supra) and polyQ-expanded Htt (i.e., Q46, residues 1-949; Qin, et al. (2004) J. Neurosci. 24(1):269-81) were cloned into the pcDNA.3 vector and produced by in vitro transcription/translation as described for the androgen receptor. Alternatively, shorter constructs (Htt exon1) were expressed in E. coli as GST-tagged proteins.
Squid Axoplasm. Isolated squid axoplasm represents a unique experimental system to evaluate axonal-specific effects and pathogenic mechanisms. This model was instrumental in the original discovery of kinesin-1 (Brady (1985) Nature 317:73-75, novel pathways for fast axonal transport (Morfini, et al. (2002) supra; Morfini, et al. (2004) supra), and axonal-specific phosphorylation events (Grant & Pant (2000) J. Neurocytol. 29:843-72). Bidirectional membrane-bound organelle movements are observed with properties unchanged from intact axons for hours after removal of plasma membrane (Brady, et al. (1982) Science 218:1129-1131). Video-enhanced microscopic techniques allow quantitative analysis of membrane-bound organelle movement in fast axonal transport. Typical kinesin-dependent transport rates are 1.5-2.0 μm/s, whereas retrograde, cytoplasmic dynein-dependent rates are 1-1.3 μm/s in perfused axoplasms. These rates are maintained with little (<10%) or no reduction for >1 hour after perfusion with control buffer (Brady, et al. (1982) supra). The lack of permeability barriers allows perfusion of the axoplasm with a variety of effector molecules at known concentrations. Effectors of interest include nucleotides, pharmacological inhibitors, recombinant polypeptides, and antibodies. Typically, 6-His, Hemagglutinin, Myc and GST-tagged recombinant proteins are either expressed in bacteria or in vitro translated, purified and perfused (Szebenyi, et al. (2003) supra; Morfini, et al. (2002) supra).
Motility Studies in Isolated Axoplasm. Axoplasm was extruded from giant axons of the squid Loligo pealeii (Marine Biological Laboratory, Woods Hole, Mass.) as described (Brady, et al. (1985) Cell Motil. 5:81-101). Axons were 400-600 μm in diameter and provided ≈5 μl of axoplasm. […] Preparations were analyzed on a ZEISS AXIOMAT with a 100×, 1.3 n.a. objective, and DIC optics. […] Organelle velocities were measured with a Photonics Microscopy C2117 video manipulator (Hamamatsu).

kinesin-1 heavy chain = target: T1, kinesin-1 heavy chain (Rattus norvegicus, UniProt P56536); assay: Binding of kinesin-1 to microtubules after JNK3 treatment; assay type: biochemical; details: kinesin-1 heavy chain treated with JNK3 kinase
T1 construct: coding for the first 584 amino acids of rat KHC (KHC-584); made in house; host or cells: E. coli
T1 sequence (P56536 1-584 limits assumed): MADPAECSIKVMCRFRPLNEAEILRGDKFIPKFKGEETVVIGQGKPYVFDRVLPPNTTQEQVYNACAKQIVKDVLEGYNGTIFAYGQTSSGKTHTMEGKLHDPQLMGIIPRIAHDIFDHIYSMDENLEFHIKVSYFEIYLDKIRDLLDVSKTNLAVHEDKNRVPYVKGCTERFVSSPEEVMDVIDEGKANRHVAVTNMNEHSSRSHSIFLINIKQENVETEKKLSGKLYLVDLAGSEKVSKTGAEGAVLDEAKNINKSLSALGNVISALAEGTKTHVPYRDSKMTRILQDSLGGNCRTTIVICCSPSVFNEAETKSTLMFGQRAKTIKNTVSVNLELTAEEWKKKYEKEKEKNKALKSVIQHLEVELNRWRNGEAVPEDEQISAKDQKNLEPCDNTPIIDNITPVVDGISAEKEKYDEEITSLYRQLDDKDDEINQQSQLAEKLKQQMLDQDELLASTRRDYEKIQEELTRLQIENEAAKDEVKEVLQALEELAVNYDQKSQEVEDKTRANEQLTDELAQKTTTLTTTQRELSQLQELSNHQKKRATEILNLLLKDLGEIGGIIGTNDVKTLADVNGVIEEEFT
Protocol: Microtubule Binding Assays. Microtubule binding assays was performed according to established methods (Stenoien & Brady (1997) supra). Briefly, three 70% confluent 100-mm culture dishes containing either wild-type or 902-6 SH-SY5Y cells were homogenized with 500 μl of HEM buffer (50 mM HEPES, 1 mM EGTA, 2 mM MgSO4, 1% TRITON X-100, pH 7.2, 1 μM staurosporine, 1 μM K252a, 50 nM okadaic acid and 1/100 mammalian protease inhibitor cocktail (Sigma) at 4° C. Lysates were centrifuged at 50000 rpm for 5 minutes at 4° C.
Six hundred μg of total protein from clarified wild-type or 902-6 SH-SY5Y cells were incubated with 0.2 mg of TAXOL-stabilized microtubules (Cytoskeleton, Denver, Colo.) and 2.5 mM AMP-PNP for 30 minutes at 37° C. Samples were centrifuged for 25 minutes at 50000 rpm (4° C.) over a cushion of 20% sucrose in HEM plus 20 μM TAXOL. Pellets and supernatants were collected and the amount of kinesin in each fraction was assayed by immunoblot with anti-kinesin monoclonal antibodies.
In Vitro Kinesin-1 Phosphorylation. A recombinant cDNA fragment coding for the first 584 amino acids of rat KHC (KHC-584) was subcloned into pET expression vector, expressed in E. coli and purified by nickel affinity chromatography (Qiagen, Valencia, Calif.). […]

[1] = perfused, concentration not given

B1: wild-type Htt: human wild-type Huntingtin (Q20, residues 1-548) produced by in vitro transcription/translation (protein, UniProt P42858 1-548, looked up, fragment)
chain: MATLEKLMKAFESLKSFQQQQQQQQQQQQQQQQQQQQQPPPPPPPPPPPQLPQPPPQAQPLLPQPQPPPPPPPPPPGPAVAEEPLHRPKKELSATKKDRVNHCLTICENIVAQSVRNSPEFQKLLGIAMELFLLCSDDAESDVRMVADECLNKVIKALMDSNLPRLQLELYKEIKKNGAPRSLRAALWRFAELAHLVRPQKCRPYLVNLLPCLTRTSKRPEESVQETLAAAVPKIMASFGNFANDNEIKVLLKAFIANLKSSSPTIRRTAAGSAVSICQHSRRTQYFYSWLLNVLLGLLVPVEDEHSTLLILGVLLTLRYLVPLLQQQVKDTSLKGSFGVTRKEMEVSPSAEQLVQVYELTLHHTQHQDHNVVTGALELLQQLFRTPPPELLQTLTAVGGIGQLTAAKEESGGRSRSGSIVELIAGGGSSCSPVLSRKQKGKVLLGEEEALEDDSESRSDVSSSALTASVKDEISGELAASSGVSTPGSAGHDIITEQPRSQHTLQADSVDLASCDLTSSATDGDEEDILSHSSSQVSAVPSDPAMDL
modifications: Q20
notes: human wild-type Huntingtin (Q20, residues 1-548) produced by in vitro transcription/translation
effect on fast axonal transport (fast axonal transport; perfused alone): showed no effect on either direction of fast axonal transport

B2: polyQ-Htt: polyQ-expanded Huntingtin (Q46, residues 1-949) produced by in vitro transcription/translation (protein, UniProt P42858 1-949, looked up, fragment)
chain: MATLEKLMKAFESLKSFQQQQQQQQQQQQQQQQQQQQQPPPPPPPPPPPQLPQPPPQAQPLLPQPQPPPPPPPPPPGPAVAEEPLHRPKKELSATKKDRVNHCLTICENIVAQSVRNSPEFQKLLGIAMELFLLCSDDAESDVRMVADECLNKVIKALMDSNLPRLQLELYKEIKKNGAPRSLRAALWRFAELAHLVRPQKCRPYLVNLLPCLTRTSKRPEESVQETLAAAVPKIMASFGNFANDNEIKVLLKAFIANLKSSSPTIRRTAAGSAVSICQHSRRTQYFYSWLLNVLLGLLVPVEDEHSTLLILGVLLTLRYLVPLLQQQVKDTSLKGSFGVTRKEMEVSPSAEQLVQVYELTLHHTQHQDHNVVTGALELLQQLFRTPPPELLQTLTAVGGIGQLTAAKEESGGRSRSGSIVELIAGGGSSCSPVLSRKQKGKVLLGEEEALEDDSESRSDVSSSALTASVKDEISGELAASSGVSTPGSAGHDIITEQPRSQHTLQADSVDLASCDLTSSATDGDEEDILSHSSSQVSAVPSDPAMDLNDGTQASSPISDSSQTTTEGPDSAVTPSDSSEIVLDGTDNQYLGLQIGQPQDEDEEATGILPDEASEAFRNSSMALQQAHLLKNMSHCRQPSDSSVDKFVLRDEATEPGDQENKPCRIKGDIGQSTDDDSAPLVHCVRLLSASFLLTGGKNVLVPDRDVRVSVKALALSCVGAAVALHPESFFSKLYKVPLDTTEYPEEQYVSDILNYIDHGDPQVRGATAILCGTLICSILSRSRFHVGDWMGTIRTLTGNTFSLADCIPLLRKTLKDESSVTCKLACTAVRNCVMSLCSSSYSELGLQLIIDVLTLRNSSYWLVRTELLETLAEIDFRLVSFLEAKAENLHRGAHHYTGLLKLQERVLNNVVIHLLGDEDPRVRHVAAASLIRLVPKLFYKCDQGQADP
modifications: polyQ expanded to Q46
notes: polyQ-expanded Huntingtin (Q46, residues 1-949) produced by in vitro transcription/translation
effect on fast axonal transport (fast axonal transport; perfused alone): striking inhibition of fast axonal transport rates

B3: JNK1: recombinant, active JNK1 protein (protein, UniProt P45983 1-427, looked up)
Mitogen-activated protein …: MSRSKRDNNFYSVEIGDSTFTVLKRYQNLKPIGSGAQGIVCAAYDAILERNVAIKKLSRPFQNQTHAKRAYRELVLMKCVNHKNIIGLLNVFTPQKSLEEFQDVYIVMELMDANLCQVIQMELDHERMSYLLYQMLCGIKHLHSAGIIHRDLKPSNIVVKSDCTLKILDFGLARTAGTSFMMTPYVVTRYYRAPEVILGMGYKENVDLWSVGCIMGEMVCHKILFPGRDYIDQWNKVIEQLGTPCPEFMKKLQPTVRTYVENRPKYAGYSFEKLFPDVLFPADSEHNKLKASQARDLLSKMLVIDASKRISVDEALQHPYINVWYDPSEAEAPPPKIPDKQLDEREHTIEEWKELIYKEVMDLEERTKNGVIRGQPSPLGAAVINGSQHPSSSSSVNDVSSMSTDPTLASDTDSSLEAAAGPLGCCR
effect on fast axonal transport (fast axonal transport; perfused at 200 nM): did not show any effect on either direction of fast axonal transport

B4: JNK3: recombinant, active JNK3 protein (protein, UniProt P53779 1-464, looked up)
Mitogen-activated protein …: MSLHFLYYCSEPTLDVKIAFCQGFDKQVDVSYIAKHYNMSKSKVDNQFYSVEVGDSTFTVLKRYQNLKPIGSGAQGIVCAAYDAVLDRNVAIKKLSRPFQNQTHAKRAYRELVLMKCVNHKNIISLLNVFTPQKTLEEFQDVYLVMELMDANLCQVIQMELDHERMSYLLYQMLCGIKHLHSAGIIHRDLKPSNIVVKSDCTLKILDFGLARTAGTSFMMTPYVVTRYYRAPEVILGMGYKENVDIWSVGCIMGEMVRHKILFPGRDYIDQWNKVIEQLGTPCPEFMKKLQPTVRNYVENRPKYAGLTFPKLFPDSLFPADSEHNKLKASQARDLLSKMLVIDPAKRISVDDALQHPYINVWYDPAEVEAPPPQIYDKQLDEREHTIEEWKELIYKEVMNSEEKTKNGVVKGQPSPSGAAVNSSESLPPSSSVNDISSMSTDQTLASDTDSSLEASAGPLGCCR
mean rate for anterograde fast axonal transport (fast axonal transport; [1]): 0.9 µM/s | retrograde, cytoplasmic dynein-dependent fast axonal transport mean rate (fast axonal transport; [1]): 1.25 µM/s | effect on binding of kinesin-1 to microtubules (kinesin-1 heavy chain): inhibits the binding of kinesin-1 to microtubules
